From paper PMC8017925, “Structural basis for differential recognition of phosphohistidine-containing peptides by 1-pHis and 3-pHis monoclonal antibodies” (Proceedings of the National Academy of Sciences of the …, 2021)

T1: ACLYana-1-pHis peptide (AGAG-1-pHis-AGAG)
T1 sequence (peptide, 1-phosphohistidine at position 5; biotin on the N-terminus): AGAGHAGAG

T2: ACLY peptide, 3-pHis form
T2 sequence (peptide, biotin on the N-terminus; C-terminal amide; 3-phosphohistidine at position 5): VQFGHAGAC

T3: Common-His peptide, 3-pHis form
T3 sequence (peptide, biotin on the N-terminus; C-terminal amide; 3-phosphohistidine at position 5): GEQLHDLNA

T4: NM23 peptide, 3-pHis form
T4 sequence (peptide, biotin on the N-terminus; C-terminal amide; 3-phosphohistidine at position 5): RNIIHGSDS

T5: ACLYana-3-pHis peptide (AGAG-3-pHis-AGAG)
T5 sequence (peptide, 3-phosphohistidine at position 5; biotin on the N-terminus): AGAGHAGAG


Experiments:
[1] = target: T1, ACLYana-1-pHis peptide (AGAG-1-pHis-AGAG); test: BLI; N-terminally biotinylated peptides (20 nM) on streptavidin biosensors, varying concentrations of Fab in solution; 50 mM Hepes pH 8.0, 150 mM NaCl, 0.05% Tween-20, 0.2% BSA; association 120 s, dissociation 200 s; global fit to a 1:1 Langmuir model; Octet RED96e; in triplicate
[2] = target: ACLYana-1-pTza peptide (AGAG-1-pTza-AGAG); test: as above
[3] = target: T2, ACLY peptide, 3-pHis form; test: BLI; biotinylated pHis peptides (20 nM) on streptavidin biosensors, Fab in solution at varying concentrations; 50 mM Hepes pH 8.0, 150 mM NaCl, 0.05% Tween-20, 0.2% BSA; Octet RED96e; global fit to a 1:1 Langmuir model
[4] = target: T3, Common-His peptide, 3-pHis form; test: as above
[5] = target: T4, NM23 peptide, 3-pHis form; test: as above
[6] = substrate: SCS peptide, 3-pHis form; test: as above
[7] = target: T5, ACLYana-3-pHis peptide (AGAG-3-pHis-AGAG); test: BLI; N-terminally biotinylated peptides (20 nM) on streptavidin biosensors, varying concentrations of Fab in solution; 50 mM Hepes pH 8.0, 150 mM NaCl, 0.05% Tween-20, 0.2% BSA; association 120 s, dissociation 200 s; global fit to a 1:1 Langmuir model; Octet RED96e; in triplicate
[8] = target: ACLYana-3-pTza peptide (AGAG-3-pTza-AGAG); test: as above
[9] = target: ACLYana-3-pTza peptide (AGAG-3-pTza-AGAG); test: BLI binding kinetics of 3-pHis Fabs with cognate pTza peptide; settings: triplicate; for Kd: BLI Octet RED96e, N-terminally biotinylated peptide (20 nM) on streptavidin biosensors, varying Fab concentration, 50 mM Hepes pH 8.0, 150 mM NaCl, 0.05% Tween-20, 0.2% BSA, association 120 s, dissociation 200 s, global fit 1:1 Langmuir; for ka / kd: BLI, immobilized biotinylated ACLYana-3-pTza, 1:1 Langmuir global fit
Experimental: (§1) Biolayer interferometry (BLI) studies were performed to determine the relative affinity of pHis Fabs to in situ phosphorylated His peptides versus the phosphomimetic substrates. The N-terminally biotinylated peptides were immobilized on streptavidin biosensors and the rate of association (ka) and dissociation (kd) were determined by varying the pHis Fab concentration. Equilibrium dissociation constants (KD) were determined by fitting the experimental data to a 1:1 Langmuir binding model. ACLYana-1-pTza and ACLYana-3-pTza peptides were used to determine affinity to 1-pHis and 3-pHis Fabs, respectively (Fig. 3 A–E and Table 1). […] The two isomers were separated from each other by passing the reaction through affinity columns containing 1-pHis mAbs using SC1-1 or SC50-3 IgGs or 3-pHis mAbs using SC39-4, SC44-8, and SC56-2 IgGs. The eluates thus contained either predominantly 1-pHis or 3-pHis peptides. These peptides were used to determine the affinity to their respective isomer class of pHis Fabs (Fig. 3 F–J, Table 1, and SI Appendix, Fig. S5). […] This experimental observation is well supported by the higher number of hydrogen bonds that support the SC44-8:3-pTza interaction compared to other pHis Fabs (SI Appendix, Table S5). […] There are at least three reasons for the lower affinity of the mAbs for pHis peptides compared to pTza peptides: The continuous hydrolysis of phosphate from the pHis peptides during the course of the experiment (SI Appendix, Fig. S6), a reduction in the number of hydrogen bond interactions due to one less nitrogen in the imidazole ring compared to triazolyl ring (Fig. 4 and SI Appendix, Fig. S8), and inherently different electronic properties of the imidazole and triazolyl rings in His and Tza, respectively ([20]).
(§2) Fig. 3. Binding kinetics of pHis Fabs with cognate pTza and pHis peptides. BLI studies of immobilized peptides (ACLYana-1/3-pTza and phosphorylated ACLYana) with varying concentrations of the pHis Fabs were carried out in triplicate on an Octet Red96e instrument (FortéBio). SC1-1 (A) and SC50-3 (B) pHis Fab interaction with their ACLYana-1-pTza peptides. SC39-4 (C), SC44-8 (D), and SC56-2 (E) pHis Fabs interactions with ACLYana-3-pTza peptides. SC1-1 (F), SC50-3 (G), SC39-4 (H), SC44-8 (I), and SC56-2 (J) pHis Fabs interactions with their affinity-purified ACLYana-pHis peptides are represented, Right. The experimental data are represented in the black dashed lines and the nonlinear least-squares fitting was represented in the red continuous lines. The χ^2 for the goodness of fit is under 1.0 for the all the plots.
(§3) The binding kinetics of pHis Fabs with the peptides (pTza and pHis) were evaluated with an Octet RED96e (FortéBio). Streptavidin-coated biosensors (FortéBio) were presoaked in buffer containing 50 mM Hepes pH 8.0, 150 mM NaCl, 0.05% Tween-20, and 0.2% BSA for 15 min. The biotinylated pTza peptides or pHis peptides (20 nM) with and without phosphoramidate treatment were coated onto these streptavidin biosensors and analyzed for their binding to varying concentrations of the pHis Fabs with an association time of 120 s and dissociation time of 200 s. The entire set of experiments was repeated three times. The data were analyzed using the Octet software (FortéBio) and the rates of association and dissociation were obtained by global fitting data to the 1:1 Langmuir interaction model.

[10] = tested on: ACLYana-3-pHis peptide (AGAG-3-pHis-AGAG); test: BLI binding kinetics of 3-pHis Fabs with affinity-purified pHis peptide; settings: for ka / kd / Kd: BLI, 1:1 Langmuir global fit, triplicate; for ka / kd: affinity-purified ACLYana-3-pHis peptide; for Kd: ACLYana phosphorylated with phosphoramidate (8 h, 23 °C), 3-pHis isomer affinity-purified on 3-pHis IgG column, immobilized on streptavidin biosensors, Hepes pH 8.0; for affinity for 3-pHis peptides, times (fold) weaker than for the 3-pTza peptide: ratio of BLI KD, 3-pHis versus 3-pTza peptide
Experimental: as §1, §2
as §3, with “model. […]” for “model.”
Peptides used in the DSF and BLI experiments were synthesized by the Salk Peptide Synthesis Core. These peptides were N-terminally biotinylated and C-terminally amidated. They were synthesized using standard Fmoc chemistry on a Gyros Protein Technologies Tribute peptide synthesizer with UV monitoring. Following the deprotection, peptides were analyzed by mass spectrometry and analytical HPLC by the Proteomics Core at Salk. The peptides were HPLC purified to 99% purity by 21st Century Biochemicals, Inc. The Fmoc-pTza’s were synthesized at 10 g scale for incorporation into the peptides. […]

Kd [3]	koff [3]	kon [3]	Kd [4]	koff [4]	kon [4]	Kd [5]	koff [5]	kon [5]	Kd [6]	koff [6]	kon [6]	Kd [7]	koff [7]	kon [7]	Kd [8]	koff [8]	kon [8]	Kd [9]	ka [9]	Molecule	further results
–	–	–	–	–	–	–	–	–	–	–	–	–	–	–	–	–	–	0.067 µM	164000 ± 1060 M⁻¹ s⁻¹	SC39-4: Fab of rabbit 3-pHis-specific monoclonal antibody (antibody, V domains shown) VH: QSVEESGGRLVTPGGSLTLTCTVSGFSLSRYNMGWVRQAPGKGLEWIGWIPFRGSLKYATWATGRFTISRTSTTVDLRMTGLTAADTATYFCVRSSDGFDLWGPGTLVTISS VL: DMTQTPASVEAVVGGTVTIKCQASRDTGDGLIWYQQKPGQPPKRLIYKASTVASGVPSRFKGRGSGTDFTLTISDLECADAATYYCHSNFYNRWTYGNAFGGGTEVVVK	kd [9]: 0.011 ± 1.6e-05 s⁻¹; ka [10]: 147000 ± 5780 M⁻¹ s⁻¹; kd [10]: 0.117 ± 0.0016 s⁻¹; Kd [10]: 0.799 µM; affinity for 3-pHis peptides, times (fold) weaker than for the 3-pTza peptide [10]: 10 to 25 times
3.01 µM	0.15 s⁻¹	50100 M⁻¹ s⁻¹	3.6 µM	0.127 s⁻¹	35600 M⁻¹ s⁻¹	5.7 µM	0.126 s⁻¹	22200 M⁻¹ s⁻¹	6.2 µM	0.136 s⁻¹	22000 M⁻¹ s⁻¹	2.42 µM	0.183 s⁻¹	75600 M⁻¹ s⁻¹	0.0966 µM	0.00939 s⁻¹	97300 M⁻¹ s⁻¹	–	–	SC56-2 Fab (Fab, V domains shown) VH: QSVEESEGGLIKPGGILTLTCTASGFSLSSYGFSWVRQAPGKGLEHIGYLHANGRAYYATWAKSRSTITRNTNLNTVTLQLTSLTAADTATYFCAKIGSVSDVAIWGPGTLVTISS VL: DMTQTPSSTSAAVGGTVTINCQSSESIYNNKNLAWYQQKPGQSPRRLIYSISTLASGVSSRFKGSGSGTQFTLTISDVQCDDAATYYCVGYYYSGGYYYSGSAAYYAFGGGTEVVVK	–
–	–	–	–	–	–	–	–	–	–	–	–	–	–	–	–	–	–	0.0966 µM	97300 ± 1110 M⁻¹ s⁻¹	SC56-2: Fab of rabbit 3-pHis-specific monoclonal antibody (antibody, V domains shown) VH: QSVEESEGGLIKPGGILTLTCTASGFSLSSYGFSWVRQAPGKGLEHIGYLHANGRAYYATWAKSRSTITRNTNLNTVTLQLTSLTAADTATYFCAKIGSVSDVAIWGPGTLVTISS VL: DMTQTPSSTSAAVGGTVTINCQSSESIYNNKNLAWYQQKPGQSPRRLIYSISTLASGVSSRFKGSGSGTQFTLTISDVQCDDAATYYCVGYYYSGGYYYSGSAAYYAFGGGTEVVVK	kd [9]: 0.00939 ± 1.78e-05 s⁻¹; ka [10]: 75600 ± 2170 M⁻¹ s⁻¹; kd [10]: 0.183 ± 0.00181 s⁻¹; Kd [10]: 2.42 µM; affinity for 3-pHis peptides, times (fold) weaker than for the 3-pTza peptide [10]: 10 to 25 times

More lines, now with the values behind:

Molecule	Kd [3]	koff [3]	kon [3]	Kd [4]	koff [4]	kon [4]	Kd [5]	koff [5]	kon [5]	Kd [6]	koff [6]	kon [6]	Kd [7]	koff [7]	kon [7]	Kd [8]	koff [8]	kon [8]	Kd [9]	ka [9]	further results
SC1-1 Fab (Fab, V domains shown) VH: QSVEESEGGLFKPTDTLTLTCTASGFSLSGHGVIWVRQAPGKGLEWIGSAGAYGRIYYASWAKSRSTITRNTNLNTVTLKMTSLTAADTATYFCARRSDVGTSVGFDSWGPGTLVTISS VL: DMTQTPSSKSVPVGDTVTINCQASESVYSNNRLSWFQQKPGQPPKLLIYLVSTLASGVPSRFKGSGSGTQFTLTISDVVCDDAATYYCVGYKSSTTDGLAFGGGTEVVVK	–	–	–	–	–	–	–	–	–	–	–	–	–	–	–	–	–	–	–	–	Kd [1]: 0.0951 µM; koff [1]: 0.00925 s⁻¹; kon [1]: 97300 M⁻¹ s⁻¹; Kd [2]: 0.0248 µM; koff [2]: 0.00199 s⁻¹; kon [2]: 81300 M⁻¹ s⁻¹
SC39-4 Fab (Fab, V domains shown) VH: QSVEESGGRLVTPGGSLTLTCTVSGFSLSRYNMGWVRQAPGKGLEWIGWIPFRGSLKYATWATGRFTISRTSTTVDLRMTGLTAADTATYFCVRSSDGFDLWGPGTLVTISS VL: DMTQTPASVEAVVGGTVTIKCQASRDTGDGLIWYQQKPGQPPKRLIYKASTVASGVPSRFKGRGSGTDFTLTISDLECADAATYYCHSNFYNRWTYGNAFGGGTEVVVK	1.42 µM	0.0243 s⁻¹	72200 M⁻¹ s⁻¹	3.29 µM	0.0454 s⁻¹	13800 M⁻¹ s⁻¹	2.35 µM	0.073 s⁻¹	51400 M⁻¹ s⁻¹	2.32 µM	0.0521 s⁻¹	22400 M⁻¹ s⁻¹	0.799 µM	0.117 s⁻¹	147000 M⁻¹ s⁻¹	0.067 µM	0.011 s⁻¹	164000 M⁻¹ s⁻¹	–	–	–
